Here are results for 1 molecule from patent US7977317B2, “Compositions and methods for modulating blood-brain barrier transport” (Raptor Pharmaceutical Inc., priority 2001, dated 2011).

For data set [1], the system named is BBCE. The data set can be described thus: Transcellular co-localization of p97 with clathrin in BBCE. The settings on record: clathrin versus caveolin. It counts as cell-based, bovine. From the text:
FIG. 21 depicts the transcellular co-localization of p97 and clathrin turning transcytosis.
Transcellular localization of p97 and clathrin was examined in BBCE as the p97 moved from the luminal to abluminal side of the BBB model (FIG. 21). The data are indicative of a co-migration of p97 and clathrin. As a control for the effect of the Alexa label, the behavior of p97 and p97-alexa were compared. (data not shown).

For data set [2], the system named is BBCEC monolayers. The data set can be described thus: Sucrose permeability of BBCEC monolayers (in vitro BBB model) in the presence of p97. It counts as cell-based, bovine. The protocol: FIG. 2. Effect of p97 (1 μm) on sucrose permeability with BBCECs that were preincubated for 2 hrs at 37° C. The effect of p97 at 1 μM on sucrose permeability of the in vitro BBB model was tested. The permeability coefficient (Pe) for sucrose was calculated as previously described (Dehouck, et al., J. Neurochem., 58:1790-179 (1992)) using filters coated or non-coated with BBCE cells. Briefly, coated or non-coated filters with BBCE cells were transferred to 6-well plates containing 2 ml of Ringer/Hepes per well (basolateral compartment) for 2 hrs at 37° C. In each apical (i.e., luminal) chamber, the culture medium was replaced by 1 ml Ringer/Hepes containing labeled [^14C]-sucrose. […] At the end of the experiments, amounts of the radiotracers in the basolateral (i.e., abluminal) compartment were measured in a liquid scintillation counter. The permeability coefficient (Pe) was calculated as described in FIG. 1.
FIG. 14 illustrates the stability of p97 and integrity of the BBCEC monolayers following p97 transcytosis. […] The gels were dried and scanned to quantify the amount of intact p97 that crossed the BBCEC monolayers at 37° C. and 4° C. […]
D. Sucrose permeability. The permeability coefficient for sucrose was measured to verify the endothelial permeability and the integrity and tightness of the BBCEC monolayers, as previously described, using uncoated filters or coated with endothelial cells. […]

B1: p97: recombinant human melanotransferrin (p97), provided by Synapse Technologies (protein, UniProt P08582 20-709, looked up)
Melanotransferrin: GMEVRWCATSDPEQHKCGNMSEAFREAGIQPSLLCVRGTSADHCVQLIAAQEADAITLDGGAIYEAGKEHGLKPVVGEVYDQEVGTSYYAVAVVRRSSHVTIDTLKGVKSCHTGINRTVGWNVPVGYLVESGRLSVMGCDVLKAVSDYFGGSCVPGAGETSYSESLCRLCRGDSSGEGVCDKSPLERYYDYSGAFRCLAEGAGDVAFVKHSTVLENTDGKTLPSWGQALLSQDFELLCRDGSRADVTEWRQCHLARVPAHAVVVRADTDGGLIFRLLNEGQRLFSHEGSSFQMFSSEAYGQKDLLFKDSTSELVPIATQTYEAWLGHEYLHAMKGLLCDPNRLPPYLRWCVLSTPEIQKCGDMAVAFRRQRLKPEIQCVSAKSPQHCMERIQAEQVDAVTLSGEDIYTAGKTYGLVPAAGEHYAPEDSSNSYYVVAVVRRDSSHAFTLDELRGKRSCHAGFGSPAGWDVPVGALIQRGFIRPKDCDVLTAVSEFFNASCVPVNNPKNYPSSLCALCVGDEQGRNKCVGNSQERYYGYRGAFRCLVENAGDVAFVRHTTVFDNTNGHNSEPWAAELRSEDYELLCPNGARAEVSQFAACNLAQIPPHAVMVRPDTNIFTVYGLLDKAQDLFGDDHNKNGFKMFDSSNYHGQDLLFKDATVRAVPVGEKTTYRGWLGLDYVAALEGMSSQQC
In the case of B1, in data set [1], the Co-localization during endocytosis/transcytosis entry is “co-localize with clathrin”. In addition, the “Change in sucrose permeability by p97” value in data set [2] (1 micromolar p97 (FIG. 2)) was “no significant change”. Besides, the “Clearance of sucrose in the presence of p97” value in data set [2] (high concentration of p97 (FIG. 14c)) is listed as “No significant increase”.
